From IntAct's records for PubMed 16531226 come the findings set out here.

B1: Serine/threonine-protein phosphatase 5 (Homo sapiens), P53041 (parent)
chain: MAMAEGERTECAEPPRDEPPADGALKRAEELKTQANDYFKAKDYENAIKFYSQAIELNPSNAIYYGNRSLAYLRTECYGYALGDATRAIELDKKYIKGYYRRAASNMALGKFRAALRDYETVVKVKPHDKDAKMKYQECNKIVKQKAFERAIAGDEHKRSVVDSLDIESMTIEDEYSGPKLEDGKVTISFMKELMQWYKDQKKLHRKCAYQILVQVKEVLSKLSTLVETTLKETEKITVCGDTHGQFYDLLNIFELNGLPSETNPYIFNGDFVDRGSFSVEVILTLFGFKLLYPDHFHLLRGNHETDNMNQIYGFEGEVKAKYTAQMYELFSEVFEWLPLAQCINGKVLIMHGGLFSEDGVTLDDIRKIERNRQPPDSGPMCDLLWSDPQPQNGRSISKRGVSCQFGPDVTKAFLEENNLDYIIRSHEVKAEGYEVAHGGRCVTVFSAPNYCDQMGNKASYIHLQGSDLRPQFHQFTAVPHPNVKPMAYANTLLQLGMM

This assay covers variants of B1. Particulars: with hs90b_human HSP90AB1, P08238.
Chain of hs90b_human HSP90AB1, P08238 (P08238 whole entry): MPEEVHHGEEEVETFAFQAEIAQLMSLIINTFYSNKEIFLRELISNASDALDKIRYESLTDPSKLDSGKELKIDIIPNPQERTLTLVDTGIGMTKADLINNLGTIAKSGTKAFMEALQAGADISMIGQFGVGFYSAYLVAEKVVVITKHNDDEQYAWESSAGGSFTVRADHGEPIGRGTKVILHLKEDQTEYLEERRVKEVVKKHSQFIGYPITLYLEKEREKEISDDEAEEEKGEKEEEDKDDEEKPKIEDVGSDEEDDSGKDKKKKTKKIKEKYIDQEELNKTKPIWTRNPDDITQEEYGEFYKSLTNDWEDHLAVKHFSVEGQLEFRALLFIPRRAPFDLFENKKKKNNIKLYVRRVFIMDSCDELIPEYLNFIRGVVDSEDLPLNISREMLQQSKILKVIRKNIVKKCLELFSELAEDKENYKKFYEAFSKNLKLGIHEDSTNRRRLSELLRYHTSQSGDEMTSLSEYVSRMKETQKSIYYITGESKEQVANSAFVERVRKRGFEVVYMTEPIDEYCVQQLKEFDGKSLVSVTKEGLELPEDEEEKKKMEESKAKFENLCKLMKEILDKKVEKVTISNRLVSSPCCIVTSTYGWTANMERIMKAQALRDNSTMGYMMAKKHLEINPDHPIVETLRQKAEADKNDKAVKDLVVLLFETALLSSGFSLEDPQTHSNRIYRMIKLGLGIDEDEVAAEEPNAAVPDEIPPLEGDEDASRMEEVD
For G83N, the “effect of a mutation on the interaction” value is “increasing interaction”.
